Where no end group is shown, it is not given here.
Experiments:
LC3B [1] = molecular target: T1, LC3B (UniProt Q9GZQ8 1-120); test: ITC
LC3B [2] = molecular target: T1, LC3B; test: ITC; phosphorylated LIR peptide

B1: synthetic FAM134C-LIR peptide, non-phosphorylated form (peptide)
chain: LDTDAEGDDFELLDQSELSQ
modifications: synthetic peptide, non-phosphorylated; the exact peptide limits are not printed in the text (figure/supplement); limits taken as the UniProt LIR motif 445-450 plus 7 flanking residues on each side; terminal chemistry unknown
Kd (LC3B [1]): 1030 nM

B2: synthetic FAM134C-LIR peptide, phosphorylated form (peptide)
chain: LDTDAEGDDFELLDQSELSQ
modifications: also: phosphorylated close to the LIR motif, residues not given here
Kd (LC3B [2]): 180 nM

— article PMC10724265 (2023)
